Sequences and labels used below:
T1: human ferroportin (SLC40A1) fused in frame with GFP, stably expressed in HEK293 cells (human, UniProt Q9NP59 1-571)
T1 sequence (looked up): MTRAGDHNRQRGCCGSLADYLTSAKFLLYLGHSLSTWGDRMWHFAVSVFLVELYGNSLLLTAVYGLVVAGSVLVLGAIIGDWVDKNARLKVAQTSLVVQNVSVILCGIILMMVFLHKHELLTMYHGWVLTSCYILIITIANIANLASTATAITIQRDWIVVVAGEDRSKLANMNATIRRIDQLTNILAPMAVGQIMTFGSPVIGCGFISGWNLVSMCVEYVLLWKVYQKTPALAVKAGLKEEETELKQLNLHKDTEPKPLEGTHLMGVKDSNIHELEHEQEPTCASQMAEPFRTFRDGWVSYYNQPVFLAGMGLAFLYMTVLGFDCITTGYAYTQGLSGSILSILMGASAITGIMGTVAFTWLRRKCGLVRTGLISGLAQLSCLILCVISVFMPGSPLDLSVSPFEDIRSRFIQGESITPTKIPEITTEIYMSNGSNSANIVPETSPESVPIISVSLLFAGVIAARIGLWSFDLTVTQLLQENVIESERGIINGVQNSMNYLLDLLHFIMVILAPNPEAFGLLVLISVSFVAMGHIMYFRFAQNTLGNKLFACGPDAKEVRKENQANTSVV

B1: Seq. No. 557 (peptide)
peptide: XXTHXPCIXXXC
modifications: not fully specified; [Isovaleric Acid]-[Dap]-T-H-[Dpa]-P-C-I-[Lys(1PEG2_1PEG2_Ahx_C18_Diacid)]-[bhPhe]-[(D)Lys]-C-NH2
B2: Seq. No. 564 (peptide)
peptide: XETXXPCIXXXC
modifications: not fully specified; [Isovaleric Acid]-E-T-[N-(Imidazolethyl)Gly]-[Dpa]-P-C-I-[Lys(1PEG2_1PEG2_Ahx_C18_Diacid)]-[bhPhe]-[(D)Lys]-C-NH2
B3: Seq. No. 563 (peptide)
peptide: XETHXPCIXXXC
modifications: not fully specified; [Isovaleric Acid]-E-T-H-[Dpa]-P-C-I-[(D)Lys]-[bhPhe]-[Lys(1PEG2_1PEG2_IsoGlu_C18_Diacid)]-C-OH
B4: Seq. No. 565 (peptide)
peptide: XEXHXPCIXXXC
modifications: not fully specified; [Isovaleric Acid]-E-[N-(hydroxyethyl)Gly]-H-[Dpa]-P-C-I-[Lys(1PEG2_1PEG2_Ahx_C18_Diacid)]-[bhPhe]-[(D)Lys]-C-NH2
B5: Seq. No. 552 (peptide)
peptide: XETXXPCIXXXXC
modifications: not fully specified; [Isovaleric Acid]-E-T-[Lys(Acrylamide)]-[Dpa]-P-C-I-[(D)Lys]-[bhPhe]-[Lys(Ahx_Palm)]-[(D)Lys]-C-NH2
B6: Seq. No. 551 (peptide)
peptide: XEXHXPCIXXXXC
modifications: not fully specified; [Isovaleric Acid]-E-[Lys(Acrylamide)]-H-[Dpa]-P-C-I-[(D)Lys]-[bhPhe]-[Lys(Ahx_Palm)]-[(D)Lys]-C-NH2

Starred links: 1 amine or outer side, 2 acyl side, 3 side chain; linkers in the order of their positions; H or OH if unused. Non-standard residues stand in square brackets, D forms with d. Groups on a side chain read outwards from the residue. *: point of attachment. Gal = N6-(4-(galactopyranosyloxy)butanoyl) on the lysine side chain; C18 diacid = O=C(O)CCCCCCCCCCCCCCCCC(=O)*; Dip = N[C@H](C(=O)O)C(c1ccccc1)c1ccccc1; γGlu = O=C(O)[C@H](CCC(=O)[*:2])N[*:1]; Palmitoyl = CCCCCCCCCCCCCCCC(=O)*; β3hF = N[C@H](CC(=O)O)Cc1ccccc1; 4Amb = NCc1ccc(C(=O)O)cc1; Isovaleryl = CC(C)CC(=O)*; NMeA = CN[C@@H](C)C(=O)O; AEEA = NCCOCCOCC(=O)O; Acryloyl = C=CC(=O)*; Ahx = NCCCCCC(=O)O

From US20230295259A1 (Protagonist Therapeutics, Inc., priority 2020, published 2023) come the findings set out here.

This test addresses T1, human ferroportin (SLC40A1) fused in …. The test is described as follows: cell-based or functional assay.
For the molecule Isovaleryl-ETH[Dip]PCI[dK]LK([Ahx-Palmitoyl])[dK]C-NH2 (not fully specified (bridges); cysteine pairing not given here) [Seq. No. 568], the “IC50: FPN internalisation” value was 0.0118 µM.

Consider Isovaleryl-ETH[Dip]LCI[dK][β3hF]K([Ahx-Palmitoyl])[dK]C-NH2 (not fully specified (bridges); cysteine pairing not given here) [Seq. No. 569], for which the “IC50: FPN internalisation” value came out at 0.0502 µM.

Take Isovaleryl-ETHAPCI[dK][β3hF]K([Ahx-Palmitoyl])[dK]C-NH2 (not fully specified (bridges); cysteine pairing not given here) [Seq. No. 575]: the “IC50: FPN internalisation” value was 0.083 µM.

With Isovaleryl-ETH[Dip]K(Acryloyl)CI[dK][β3hF]K([Ahx-Palmitoyl])[dK]C-NH2 (not fully specified (bridges); cysteine pairing not given here) [Seq. No. 554], the “IC50: FPN internalisation” value stood at 0.103 µM.

As to B1, the “IC50: FPN internalisation” value stood at 0.0142 µM.

Isovaleryl-ETH[Dip][NMeA]CI[dK][β3hF]K([Ahx-Palmitoyl])[dK]C-NH2 (not fully specified (bridges); cysteine pairing not given here) [Seq. No. 567]: the “IC50: FPN internalisation” value is 0.0308 µM.

Take Isovaleryl-ETH[Dip]PC[4Amb]K([AEEA-AEEA-Ahx-C18 diacid])[β3hF][dK]C-NH2 (not fully specified (bridges); cysteine pairing not given here) [Seq. No. 550]: the “IC50: FPN internalisation” value worked out at 0.0131 µM.

For Isovaleryl-ETH[Dip]PCK(Gal)K([AEEA-AEEA-Ahx-C18 diacid])[β3hF][dK]C-NH2 (not fully specified (bridges); cysteine pairing not given here) [Seq. No. 561], the “IC50: FPN internalisation” value is 0.0179 µM.

Regarding Isovaleryl-ETHK(Acryloyl)PCI[dK][β3hF]K([Ahx-Palmitoyl])[dK]C-NH2 (not fully specified (bridges); cysteine pairing not given here) [Seq. No. 553], the “IC50: FPN internalisation” value came out at 0.385 µM.

Take Isovaleryl-ETH[Dip]SCIK([AEEA-AEEA-γGlu-C18 diacid])[β3hF][dK]C-NH2 (not fully specified (bridges); cysteine pairing not given here) [Seq. No. 558]: the “IC50: FPN internalisation” value came to 0.0392 µM.

As for B2, the “IC50: FPN internalisation” value came out at 0.687 µM.

Take Isovaleryl-ETH[Dip]PCA[dK][β3hF]K([Ahx-Palmitoyl])[dK]C-NH2 (not fully specified (bridges); cysteine pairing not given here) [Seq. No. 573]: the “IC50: FPN internalisation” value was found to be 0.00647 µM.

Consider B3, for which the “IC50: FPN internalisation” value was found to be 1.19 µM.

Consider {Cyclohexanoic Acid}-ETH[Dip]PCK([AEEA-AEEA-γGlu-C18 diacid])[β3hF][dK]C-NH2 (not fully specified (bridges); cysteine pairing not given here) [Seq. No. 562], for which the “IC50: FPN internalisation” value came out at 0.0184 µM.

Turning to B4, the “IC50: FPN internalisation” value is 0.0187 µM.

As for Isovaleryl-ETH[Dip]PC[4Amb][β3hF]K([Ahx-Palmitoyl])[dK]C-NH2 (not fully specified (bridges); cysteine pairing not given here) [Seq. No. 566], the “IC50: FPN internalisation” value came out at 0.0318 µM.

Regarding Isovaleryl-ETH[Dip]PCI[dK]AK([Ahx-Palmitoyl])[dK]C-NH2 (not fully specified (bridges); cysteine pairing not given here) [Seq. No. 572], the “IC50: FPN internalisation” value was 0.00847 µM.

Take B5: the “IC50: FPN internalisation” value came to 0.048 µM.

Take Isovaleryl-ETH[Dip]PC[dK][β3hF]K([Ahx-Palmitoyl])[dK]C-NH2 (not fully specified (bridges); cysteine pairing not given here) [Seq. No. 571]: the “IC50: FPN internalisation” value was found to be 0.0312 µM.

For Isovaleryl-ETHLPCI[dK][β3hF]K([Ahx-Palmitoyl])[dK]C-NH2 (not fully specified (bridges); cysteine pairing not given here) [Seq. No. 570], the “IC50: FPN internalisation” value stood at 0.0127 µM.

As for Isovaleryl-ETH[Dip]PC[dK](Gal)K([AEEA-AEEA-Ahx-C18 diacid])[β3hF][dK]C-NH2 (not fully specified (bridges); cysteine pairing not given here) [Seq. No. 560], the “IC50: FPN internalisation” value came to 0.4 µM.

On to Isovaleryl-ETH[Dip]PCI[dK]K(Acryloyl)K([Ahx-Palmitoyl])[dK]C-NH2 (not fully specified (bridges); cysteine pairing not given here) [Seq. No. 556], for which the “IC50: FPN internalisation” value is 0.0154 µM.

In the case of B6, the “IC50: FPN internalisation” value was 0.09 µM.

Turning to Isovaleryl-ETH[Dip]ACI[dK][β3hF]K([Ahx-Palmitoyl])[dK]C-NH2 (not fully specified (bridges); cysteine pairing not given here) [Seq. No. 574], the “IC50: FPN internalisation” value was 0.0102 µM.

Turning to Isovaleryl-ETH[Dip]PC[dK](Acryloyl)[dK][β3hF]K([Ahx-Palmitoyl])[dK]C-NH2 (not fully specified (bridges); cysteine pairing not given here) [Seq. No. 555], the “IC50: FPN internalisation” value came out at 0.0174 µM.
